Data reported in US20180291335A1, “MODIFIED POLYNUCLEOTIDES FOR ALTERING CELL PHENOTYPE” (ModernaTX, Inc., priority 2012, published 2018).

Tests used:
Type in all cases: cell-based, human
HeLa cells = experiment: G-CSF modified mRNA transfected in HeLa cells, G-CSF ELISA; conditions: HeLa cells, combination chemistries, ELISA
Procedure, shortened: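 G-CSF ELISA readout after 250 ng of chemically modified human G-CSF mRNA (transcribed by mutant T7 polymerase) was added to rabbit reticulocyte lysate or transfected in vitro into HeLa cells.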

[1] = system: interferon-alpha (IFN-alpha); experiment: 2′Fluoro chemistries in PBMC: IFN-alpha production by ELISA; conditions: G-CSF modified mRNA
[2] = system: tumor necrosis factor-alpha (TNF-alpha); experiment: 2′Fluoro chemistries in PBMC: TNF-alpha production by ELISA; conditions: G-CSF modified mRNA

B1: N4-acetylcytidine/2-thiouridine: G-CSF mRNA (SEQ ID NO: 408) fully modified with the named combination (nucleic acid)
chain: GGGAAAUAAGAGAGAAAAGAAGAGUAAGAAGAAAUAUAAGAGCCACCAUGGCCGGUCCCGCGACCCAAAGCCCCAUGAAACUUAUGGCCCUGCAGUUGCUGCUUUGGCACUCGGCCCUCUGGACAGUCCAAGAAGCGACUCCUCUCGGACCUGCCUCAUCGUUGCCGCAGUCAUUCCUUUUGAAGUGUCUGGAGCAGGUGCGAAAGAUUCAGGGCGAUGGAGCCGCACUCCAAGAGAAGCUCUGCGCGACAUACAAACUUUGCCAUCCCGAGGAGCUCGUACUGCUCGGGCACAGCUUGGGGAUUCCCUGGGCUCCUCUCUCGUCCUGUCCGUCGCAGGCUUUGCAGUUGGCAGGGUGCCUUUCCCAGCUCCACUCCGGUUUGUUCUUGUAUCAGGGACUGCUGCAAGCCCUUGAGGGAAUCUCGCCAGAAUUGGGCCCGACGCUGGACACGUUGCAGCUCGACGUGGCGGAUUUCGCAACAACCAUCUGGCAGCAGAUGGAGGAACUGGGGAUGGCACCCGCGCUGCAGCCCACGCAGGGGGCAAUGCCGGCCUUUGCGUCCGCGUUUCAGCGCAGGGCGGGUGGAGUCCUCGUAGCGAGCCACCUUCAAUCAUUUUUGGAAGUCUCGUACCGGGUGCUGAGACAUCUUGCGCAGCCGUGAAGCGCUGCCUUCUGCGGGGCUUGCCUUCUGGCCAUGCCCUUCUUCUCUCCCUUGCACCUGUACCUCUUGGUCUUUGAAUAAAGCCUGAGUAGGAAG
modifications: N4-acetylcytidine/2-thiouridine modified; Description of Artificial Sequence: Synthetic Transcript Sequence
- G-CSF protein (pg/ml) HeLa cells (HeLa cells): 46,136 pg/ml
- IFN-alpha: 3 Donor Average [1]: 0 pg/mL
- TNF-alpha: 2 Donor Average [2]: 285 pg/mL
